Assay: label from the status in PepcDB records

Sequence | protein production
MDGFVQWMEKHFMPKASVIAAQRHLVAIRDAFVVTMPLMILGALAVLINNIPIPGYEDFLNKIFPMMYNDAPIWKSFGGNIWNGTFAIFAVLVAFLVAHNLVKSYGKDGIAAGTVSVASFFAVGGLEGMGATGLFIALIIALISGELFQRLSGNPKLVIKMPDGVPPAVAKSFAALLPAMITISLFSLITSILFALGIDNIVISFYEAVQQPFMGLANSYPSALLLAFITPFLWFFGLHGANMVDPLMQTINVPAIDANIKALEAGKAIPYIVNKPFFDSFVNLGGTGATLGLLIAIFIVGRRNKPYKVITNLSLAPGLFNINEPVMFGLPIVLNPIMFIPFILVPMVLVTVAYVATATGLVPAATFMPPWVTPPIIGGFLATKSIAGGVLAAVNLLISILIYMPFVKVATDQYLKQEAAAEAAE | failed
MSLRAELNQGLIDFLKASPTPFHATASLARRLEAAGYRRLDERDAWHTETGGRYYVTRNDSSLIAIRLGRRSPLESGFRLVGAHTDSPCLRVKPNPEIARNGFLQLGVEVYGGALFAPWFDRDLSLAGRVTFRANGKLESRLVDFRKAIAVIPNLAIHLNRAANEGWPINAQNELPPIIAQLAPGEAADFRLLLDEQLLREHGITADVVLDYELSFYDTQSAAVVGLNDEFIAGARLDNLLSCHAGLEALLNAEGDENCILVCTDHEEVGSCSHCGADGPFLEQVLRRLLPEGDAFSRAIQRSLLVSADNAHGVHPNYADRHDANHGPALNGGPVIKINSNQRYATNSETAGFFRHLCQDSEVPVQSFVTRSDMGCGSTIGPITASQVGVRTVDIGLPTFAMHSIRELAGSHDLAHLVKVLGAFYASSELEGHHHHHH | not failed
MNGYTISAIYAHIASGISLEKRKGFFEMLDEIINNKVEKVIITYKDRLSRVGFDLFSYLFRKYRTEIAVISEVGNTKLDSEEVFEEIVSMLHSYSMKMYSKRKNHYIEVGYEG | failed
MNARSGDNVVLAILLSLLALVLFDMMGLIIKYLSPRYGAAELSAYRNFFGVFPSVIALWSSPGWHRAGRPWRIRQWRLGLMRGVYVTFAQFLFYYSLGKLAFATASTITYANAVFMTALAVPLLGERVGLMRWAAVLLGFAGVLLVMKPGSDSFTPDALAPLGAAFLYALTGVSARQMDSAVPSALINLYSVVAALVGALALALLSGGFTPLAQWSDLGWIAAMGGFGGTAVLCLVASYRMTEQSNLAPFSYFGIPIAFVAGWLVFDETPWADLFPGAFFIAGGGLMIVWRERIRSRAGRRISN | failed
MHVSKVFPSLRDTLPRDLMASVVVFLVALPLCMGIAIASGMPPAKGLLTGIVGGLVVGFLAGSPLQVSGPAAGLAVLVFELVRTYGVAMLGPILLLAGAIQLLAGRLRLGCWFRVTSPAVVYGMLAGIGILIVLSQLHVMLDLAPKASGLDNLLAFPQAAFAALGSLGMDSGLDAALLGLGTIAVMWGWDKLRPQRLRFLPGALLGVSLATLASLWLALDVRRVEVPANLGEAIVWLRPADLLALADPSLLLAAVVVAFIASAETLLSAAAVDRLHDGPRSDMDRELSAQGVGNMLCGLLGALPMTGVIVRSSANVNAGARTRASAIFHGLWLLAFVLLLGSLLRQIPVASLAGVLVYTGVKLVDFKALGNLSRYGRMPMLVYAATALAIVFTDLLTGVLVGFALTLLKLVLKAARLKIALRYTGEHEAELRLSGAATFLKVPALSRVLDEVKPGTTLHVPMDNLSYVDHACMELLEDWGRMAPVQGSRLVIEPRALKRRLEGRLRGSVGLGGARNGGAVSPG | failed
MANATFSADKLKQLTLQITKLARVAGDFQINELKNFERSNIEHKGRSNDLVSYVDKETEKLLIESLTKLVPEAGFETEEGTVEQTQSGLRWIIDPLDGTTNFLHKLPLFSISIALVQDETLLIGVVHEPSRNECFYAWKNGGAYMNGERIETSSITEISDALIATGFPYSLRGKSDQYFTLIRHFVETTHGVRRLGSAAIDLCYVACGRFEAYFEFNLKPWDVAAGILIVREAGGIVSNYSGGDDHCQTAEEVCAAGRHIHPLMIDTFKKIW | failed
MEAVLNELVSVEDLKNFERKFQSEQAAGSVSKSTQFEYAWCLVRSKYNEDIRRGIVLLEELLPKGSKEEQRDYVFYLAVGNYRLKEYEKALKYVRGLLQTEPQNNQAKELERLIDKAMKK | not failed
MAAIVLTRNLQLAKHHGSGVVGVLCLRGYSAAAAPPEDGPRPLKTTNPAAMKRGTGGRSSFNGIVATVFGATGFVGRYVCNKLGKSGTQMILPYRGDDSDVIRLKVTGDLGQVLFHFYNLEDPASIRDAVKHSNVVINLVGRDFETKNFKFKDVHVNGAERIARIAREAGVERLIHLSSLNVEANPKDLYVKGGSEWLKSKYEGELRVRDAFPNATIIRPADIYGSEDRFLRYYAHIWRRQFRSMPLWHKGEKTVKQPVYVSDVAQAIINAAKDPDSAGRIYQAVGPKRYQLSELVDWFHRLMRKDQKRWGYMRYDMRWDPTFLLKAKLNSFICPGTPIGGLHPARIEREAVTDKVLTGVPTLEDLGVTLTTMEQQVPWELRPYRAALYYDAELGEFETPSPPKCIEARDELRLFA | failed
MMPSSSTPNAFQYAWRNPWVRLVVFLGLFYLLYLFIGQITTVLVDFAVAFLIAYLANPLLGWLERGRVRRGLGVFFVLLLFLGLLALAGALVVTVGGQFVQLFQNLPAQIDNLNRILDGAVQWLSGRGIPGLADAQTRMTEALRDWIANIGNNIVPILQNALSSTGTLFNRLISIGGVIGQVLLILLLSVYLMLDYARVNASLLRAFPRPWQPKVLEFSDLIGTAVGGYVRGQLLIAAFIGIFVWLGLTIVGIPSAAAIGFLAGAFNIVPYLGPIIGATPALLLALTLPNAGFKMILVVVVFVLANQIEGNFLSPYILSKTTDLHPVTVLLAILVGVALMGFAGALLAVPLVALGKLMLEKYYYPSRVYSQGP | failed
MPQFPWKDNDAELSPLEAFLAEWDDPEAEEEDFRNDFFRGSEGRRKKAAVMLMAIWTVVITLHYWVWGSWLVWALTGALSLQALRLMKATPEEAPPLLTGDASTVPYPQVCLMVAAKNEEAVIGKIVQQLCSLDYPGDRHEVWIVDDNSTDRTPAILDQLRQQYPQLKVVRRGAGASGGKSGALNEVLAQTQGDIVGVFDADANVPKDLLRRVVPYFASPTFGALQVRKAIANEAVNFWTRGQGAEMALDAYFQQQRIVTGGIGELRGNGQFVARQALDAVGGWNEQTITDDLDLTIRLHLHQWKVGILVNPPVEEEGVTTAIALWHQRNRWAEGGYQRYLDYWRWICTQPMGWKKKLDLFSFLLMQYLLPTAAVPDLLMALWQRRFPLLTPLSYLAIGFSCWGMYYGLKRLTPSEGESPWQQMPALLARTIGGTIYMFHWLIIMPAVTARMAFRPKRLKWVKTVHGAATEDALELKQS | failed
MFNKKPLADTTARRPSTGAQAKIYSRDNVARYSERARQRRRSHTIRHVALIVVLGVLLSATTAAGLWFATIMGKLGDSNVITDNLRRVLVDTDEAKDPFYVLLLGTDGRPGEDTYRADSIILARIDPTQKQATLISVPRDTKVEYKGETMKINACHTVGGAEAMVEAVNELCGVQISHYAEVSFDGMQALIDSVGGIDINATDDVDDPEHLDIKITAGQQHMDGATALTYARCRYTYADGDYTRMRHQRQVLGALANQILNNFDATKIFGLVNSLSDMLVTDMSVQDIVATVNAMRGMDVDGIYSANLPSYADDSTMIDGVSYVFVYEDELKEMMERVDAGKDPKGPNTMGLSDGSSSTIGDLNNNTSDDYANGTATSSVSSDDSDDSSDSSDSDYYEEPTGDGNGYEANY | failed
MARANFEPYGRDFPGGRATGRFCNGRLSSDFTSEAYGLKPTVPAYLDPSYNISDFATGVCFASAGTGYDNSTADVLGVIPLWKEVEYFKEYQSNLSAYLGHRRAAKIIRESLYIVSIGTNDFLENYYTLPDRRSQFSISQYQDFLVEIAEVFLKDIYRLGARKMSFTGISPMGCLPLERVTNLDDPFSCARSYNDLAVDFNGRLRRLVTKLNRELTGIKIYFANPYDIMWDIVTKPNLYGLEISSSACCGTGLFEMGFLCGQDNPLTCSDANKFVFWDAFHPTERTNQIVSDHFFKHLKNLFH | failed
MASHIVGYPRMGPKRELKFALESFWDGKSSADDLQKVSADLRSDIWKQMSAAGIKYIPSNTFSHYDQVLDTTAMLGAVPSRYGFTSGEIGLDVYFSMARGNASVPAMEMTKWFDTNYHYIVPELGPEVKFSYASHKAVNEYKEAKALGVETVPVLVGPVSYLLLSKLAKGVDKSFDLLSLLPKILPVYKEVIAELKAAGASWIQLDEPLFVMDLEGHKLQAFSGAYAELESTLSGLNVLVETYFADIPAEAYKTLTSLKGVTAFGFDLVRGTKTIDLIKSGFPQGKYLFAGVVDGRNIWANDLAASLITLQSLEGVVGKDKLVVSTSCSLLHTAVDLINETKLDAEIKSWLAFAAQKVVEVDALAKALAGQTNESFFTANADALSSRRSSPRVTNESVQKAAAALKGSDHRRTTEVSARLDAQQKKLNLPILPTTTIGSFPQTVELRRVRREYKAKKISEEDYVKAIKEEIKKVVDIQEDLDIDVLVHGEPERNDMVEYFGEQLSGFAFTANGWVQSYGSRCVKPPVIYGDVSRPKPMTVFWSSTAQSMTKRPMKGMLTGPVTILNWSFVRNDQPRHETCYQIALAIKDEVEDLEKGGIGVIQIDEAALREGLPLRKAEHSFYLDWAVHSFRITNCGVQDSTQIHTHMCYSNFNDIIHSIIDMDADVITIENSRSDEKLLSVFREGVKYGAGIGPGVYDIHSPRIPSTDEIADRINKMLAVLEQNILWVNPDCGLKTRKYTEVKPALKAMVDAAKLIRSQLGSAK | failed
RKILDSKAIDLMNALMRLNQIRPGLQYKLLSQSGPVHAPVFTMSVDVDGTTYEASGPSKKTAKLHVAVKVLQAMGYPTGFDADI | not failed
MIGKVLEGRYEIVSELGGGGMARVYRGQDRLLNRNVTIKILREQYASDKEFLARFQREAQAVASLSHPNVVSIYDVGQEDDLHYLIMEYVEGRSLKDLISERAPLPPLEAIDISLQICDALEHAHENGVIHRDIKPHNILITRNGRVKVTDFGIAQAVSEVTMSQSGTMIGSVHYLAPEQARGGVIGATADIYSLGIVLYEMLTGDLPFHGETPVAVALKHLQENPRPVRELNPNVPPALERVVMRTLEKDPARRYPSAAALRSDLLAVRNALADATFATQVLPAIETPDPPSTLPKPRRRPRVWAWVLMALLFLGLAAAGLWAGFRYYLAVGETLVPSVVGLPEGQALEQLAAAGLRGQVIARQYDASVPAGQVMAQDPGPNQRVRRGRVVALTVSQGARLVRVPSVIGETERNARLILENANLKVAADTLKVYHPSIPAGSVVDQNPPANTQQPEGTEVRLIISKGPEPQFTTAPSVVGLSLAEAQQKLLEAKLKQGTLTYQRSDNQFPGYIIAQDPREGSNVLQGSAINLVVSQGPGPVQKQVGVTIDPAPDDKDHEVRIVVTDAKGTNEVLKKKQKMGQQIQATINYFGKGKLQVFRDGNVIYEQDLQ | failed
MNELLLITFSPLVAGVLAWLVRIRGVRESLGILGAIVPLAFLIKLYPSLDHPIRATISLGGFELGFSMSHLNWVFSMIAAVVGLSAVFGMASTAKDSYEWLFSLMSLTGALGIFMAQDLVTFFIFWEVMTFSSFMMVLKFNRAASLKYLILSIIGAYSMLVAIGIIYAKTGTFTFADISAFFRKEAMLAMLGGKSTFSRFDMALIYLLFLMAFGVKAGMFPLHVWAPDAYSETDQSYTAIFSGVLSKTGVYGFILLYVLMYGKLLIDLGQFKGTPLFGYIIAFLGGLTIIIGGVLAALQEDIRKLFAYSSISQVGYILVGLGIGTSLGIEAAIYHAISHALFKGLFFLVVATIIYRTGKTEFKDFGGLAEKMPFTFAMAFIAILSLAGIPPLVGFASKWLIFEAVISQKLPILGGMLFFGSAIGFVYLIRFTYAVWFGQRPSDIEDTKDAPLPLAIGMGILGTLNVVFGVAPGLVAKELNAIFGNPVIGGNIWELDLGFGRYNALLVAIWLVIGVLIAAILYFLGASTRKVPVTDTYQSGNPVTMEYNLTIRRNFFLPLKETMAFWLRISFDKLYKDTWKAIEDFAETARNYIYNGNVQAYAWYLAIILLILAAMGV | failed
